Paper PMC2683827

Molecular target: paclitaxel stabilized microtubules (UniProt P02550)
Assay: co-sedimentation; tau 0-10 μM mixed with paclitaxel stabilized microtubules (1.6 μM tubulin dimers, 20 μM paclitaxel) in 80 mM PIPES pH 7.0, 2 mM MgCl2, 0.5 mM EGTA; 30 min at room temperature; 100,000 x g for 5 min at 23°C; tau in the pellet measured by gel densitometry or western blot; noncooperative single-site fit; unphosphorylated and GSK-3β phosphorylated tau

Sequence of UniProt P02550 (P02550 whole entry, looked up): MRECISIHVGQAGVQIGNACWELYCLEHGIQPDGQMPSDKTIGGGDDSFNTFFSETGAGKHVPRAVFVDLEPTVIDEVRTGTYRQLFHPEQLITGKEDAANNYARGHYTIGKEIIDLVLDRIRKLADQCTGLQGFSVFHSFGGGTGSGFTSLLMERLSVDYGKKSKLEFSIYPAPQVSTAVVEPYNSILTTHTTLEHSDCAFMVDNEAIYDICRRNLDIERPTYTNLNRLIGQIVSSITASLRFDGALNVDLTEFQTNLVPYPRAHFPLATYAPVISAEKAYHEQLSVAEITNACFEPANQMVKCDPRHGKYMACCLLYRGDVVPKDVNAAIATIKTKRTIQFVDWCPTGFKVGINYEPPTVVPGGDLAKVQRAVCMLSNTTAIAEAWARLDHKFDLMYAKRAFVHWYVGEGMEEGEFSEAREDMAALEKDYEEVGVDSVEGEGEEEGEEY

fold decrease in microtubule affinity upon GSK-3β phosphorylation, against the unphosphorylated isoform [fold]	Substance
3	GSK-3β phosphorylated tau isoform 1N3R (from UniProt P10636-4 1-381) (natural protein)
3	GSK-3β phosphorylated tau isoform 1N4R (from UniProt P10636-7 1-412) (natural protein)
